By Kd is commonly meant the free concentration of one partner at which half of the binding sites on the other are occupied at equilibrium, for simple one-to-one binding. Broadly, the koff is the rate constant with which the complex falls apart. A word on the kon: it is the second-order rate constant of association.

For the assay, the target named is T1, human PD-1-his (recombinant human PD-1 extracellular domain with C-terminal polyhistidine tag) (human, UniProt Q15116 25-170).
T1 construct: extracellular domain; also called 人PD-1-his; hPD-1蛋白
The experiment in a line: SPR (Biacore 8K), antibody captured, antigen injected. A general note: Surface plasmon resonance follows binding to a sensor surface in real time, without labels.

T1 sequence (Q15116 25-170): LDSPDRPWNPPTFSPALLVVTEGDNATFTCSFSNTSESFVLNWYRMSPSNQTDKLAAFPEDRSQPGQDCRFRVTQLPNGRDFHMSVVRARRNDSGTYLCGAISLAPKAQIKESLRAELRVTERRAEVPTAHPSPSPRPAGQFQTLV

B1: murine anti-PD-1 antibody 56B3C11 (antibody, V domains shown)
VH: EVMLVESGGGLVQPGGSLKLSCAASGFTFNSYTMSWVRQTPEKRLEWVAYISFGGGDTYYPDTVKGRFTISRDNAKNTLYLQMNSLKSEDTAMYYCARQGNYEGAPFAYWGQGTLVTVSA
VL: DIQMTQTTSSLSASLGDRVTISCRASQDISNFLNWYQLKPDGTIKLLIYYTSRLHSGVPSRFSGSGSGTDYSLTITDLEQEDIATYLCQQGDMIPWTFGGGTKLEIK
Regarding B1, the Kd amounted to 2.43 nM, the koff worked out at 0.000295 s⁻¹ and the kon was determined as 122000 M⁻¹ s⁻¹.

B2: murine anti-PD-1 antibody 31G1E10 (antibody, V domains shown)
VH: EVKLVESGGGLVKPGGSLKLSCAASGFTFSSYGMSWVRQTPEKRLEWVATISGGGRDTYYPDSVKGRFTISRDNAKNNLYLQMNNLRSEDTALYYCARQRDSAWFAHWGQGTRVTVSA
VL: not shown
For the molecule B2, the dissociation constant Kd is 1.16 nM, the koff stood at 0.000198 s⁻¹ and the association rate constant (kon) came out at 171000 M⁻¹ s⁻¹.

The record behind these values is patent publication CN111253486A (ZAI LAB SHANGHAI CO LTD, dated 2020).
